The target of this test is extracellular region of the human tumor antigen c-erbB-2 (human) (UniProt P04626). As to the kind of experiment: method not given.

A word on the Kd: it is the free concentration of one partner at which half of the binding sites on the other are occupied at equilibrium, for simple one-to-one binding.

scFv C6.5 came in with a Kd of 0.16 nM.
